Source: patent US7897573B2, “Selective VPAC2 receptor peptide agonists” (priority 2005, dated 2011)

How the values were obtained:
Human VPAC2 Receptor = molecular target: T1, Human VPAC2 Receptor (Homo sapiens, UniProt P41587); assay: Alpha screen cAMP potency at human VPAC2 receptor; type: cell-based; settings: cAMP generation; read-out: Human VPAC2 Receptor: Alphascreen (EC50; nM)
T1 sequence (P41587 24-438): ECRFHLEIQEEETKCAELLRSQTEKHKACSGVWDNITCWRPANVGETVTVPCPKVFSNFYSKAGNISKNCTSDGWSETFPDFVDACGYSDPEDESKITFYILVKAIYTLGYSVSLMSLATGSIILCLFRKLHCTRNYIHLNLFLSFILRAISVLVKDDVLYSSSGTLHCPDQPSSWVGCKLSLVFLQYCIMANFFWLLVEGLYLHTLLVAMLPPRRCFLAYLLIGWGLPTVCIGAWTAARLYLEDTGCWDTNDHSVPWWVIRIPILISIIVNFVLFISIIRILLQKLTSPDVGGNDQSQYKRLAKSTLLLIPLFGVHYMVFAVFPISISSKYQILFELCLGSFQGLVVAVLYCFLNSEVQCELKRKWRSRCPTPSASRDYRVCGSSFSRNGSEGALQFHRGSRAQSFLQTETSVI
Protocol: Alpha screen: Cells are washed in the culture flask once with PBS. Then, the cells are rinsed with enzyme free dissociation buffer. The dissociated cells are removed. The cells are then spun down and washed in stimulation buffer. For each data point, 50,000 cells suspended in stimulation buffer are used. To this buffer, Alpha screen acceptor beads are added along with the stimuli. This mixture is incubated for 60 minutes. Lysis buffer and Alpha screen donor beads are added and are incubated for 60 to 120 minutes. The Alpha screen signal (indicative of intracellular cAMP levels) is read in a suitable instrument (e.g. AlphaQuest from Perkin-Elmer). Steps including Alpha screen donor and acceptor beads are performed in reduced light. The EC50 for cAMP generation is calculated from the raw signal or is based on absolute cAMP levels as determined by a standard curve performed on each plate.
The tested peptide concentrations are: 10000, 1000, 100, 10, 3, 1, 0.1, 0.01, 0.003, 0.001, 0.0001 and 0.00001 nM.

Rat VPAC1 Receptor = molecular target: T2, Rat VPAC1 Receptor (Rattus norvegicus, UniProt P30083); assay: DiscoveRx cAMP potency, CHO-PO cells transiently transfected with rat VPAC1 receptor; type: cell-based; settings: cAMP generation
T2 construct: expressed in transfected cells; host or cells: CHO-PO (transient, Lipofectamine)
T2 sequence (P30083 31-459): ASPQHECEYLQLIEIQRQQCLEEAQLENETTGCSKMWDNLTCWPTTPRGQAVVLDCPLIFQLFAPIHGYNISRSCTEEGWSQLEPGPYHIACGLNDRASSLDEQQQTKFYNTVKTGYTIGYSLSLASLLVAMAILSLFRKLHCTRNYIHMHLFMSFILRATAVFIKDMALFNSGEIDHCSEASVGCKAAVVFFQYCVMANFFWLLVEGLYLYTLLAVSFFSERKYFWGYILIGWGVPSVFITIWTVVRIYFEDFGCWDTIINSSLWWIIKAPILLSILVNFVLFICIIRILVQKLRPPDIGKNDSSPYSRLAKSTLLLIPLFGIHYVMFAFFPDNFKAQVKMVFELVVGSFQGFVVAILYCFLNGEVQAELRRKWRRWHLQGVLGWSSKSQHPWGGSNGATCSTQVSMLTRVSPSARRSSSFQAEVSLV
Protocol: (§1) DiscoveRx: CHO-PO cells are transiently transfected with rat VPAC1 or VPAC2 receptor DNA using commercially available transfection reagents (Lipofectamine from Invitrogen). The cells are seeded at a density of 10,000/well in a 96-well plate and are allowed to grow for 3 days in […] culture medium At day 3, the assay is performed.
(§2) On the day of the experiment, the medium is removed. Also, the cells are washed twice. The cells are incubated in assay buffer plus IBMX for 15 minutes at room temperature. Afterwards, the stimuli are added and are dissolved in assay buffer. The stimuli are present for 30 minutes. Then, the assay buffer is gently removed. The cell lysis reagent of the DiscoveRx cAMP kit is added. Thereafter, the standard protocol for developing the cAMP signal as described by the manufacturer is used (DiscoveRx Inc., USA). EC50 values for cAMP generation are calculated from the raw signal or are based on absolute cAMP levels as determined by a standard curve performed on each plate.
(§3) Results for each agonist are the mean of two independent runs. Rat VPAC1 and VPAC2 results are only generated using the DiscoveRx assay.

Rat VPAC2 Receptor = molecular target: T3, Rat VPAC2 Receptor (Rattus norvegicus, UniProt P35000); assay: DiscoveRx cAMP potency, CHO-PO cells transiently transfected with rat VPAC2 receptor; type: cell-based; settings: cAMP generation
T3 construct: expressed in transfected cells; host or cells: CHO-PO (transient, Lipofectamine)
T3 sequence (P35000 23-437): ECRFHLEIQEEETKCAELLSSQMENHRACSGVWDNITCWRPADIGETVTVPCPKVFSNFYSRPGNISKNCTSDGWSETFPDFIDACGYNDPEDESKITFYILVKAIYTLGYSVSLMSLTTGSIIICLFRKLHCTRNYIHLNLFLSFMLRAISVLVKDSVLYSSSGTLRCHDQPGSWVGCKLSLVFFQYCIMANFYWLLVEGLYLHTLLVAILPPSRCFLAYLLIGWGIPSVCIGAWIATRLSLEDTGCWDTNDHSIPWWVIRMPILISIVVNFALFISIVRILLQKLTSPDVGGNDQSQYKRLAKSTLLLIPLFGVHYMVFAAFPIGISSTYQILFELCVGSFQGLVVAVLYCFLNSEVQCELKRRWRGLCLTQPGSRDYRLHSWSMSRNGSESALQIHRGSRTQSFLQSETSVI
Protocol: as §1, §2, §3

[1] = Rat serum stability study (DiscoveRx cAMP read-out on CHO-VPAC2 cells); settings: EC50, 4° C./EC50, 37° C., values >100% may represent release of intact peptide from the PEG conjugate; for 24 h stab (%): 24 h in rat serum at 37° C.; for 72 h stab (%): 72 h in rat serum at 37° C.
Human VPAC1 Receptor = molecular target: T4, Human VPAC1 Receptor (Homo sapiens, UniProt P32241); assay: Filter binding assay, 125I-labeled VIP, membranes of cells transiently transfected with human VPAC1; settings: 125I-labeled VIP tracer
T4 construct: expressed in transfected cells
T4 sequence (P32241 31-457): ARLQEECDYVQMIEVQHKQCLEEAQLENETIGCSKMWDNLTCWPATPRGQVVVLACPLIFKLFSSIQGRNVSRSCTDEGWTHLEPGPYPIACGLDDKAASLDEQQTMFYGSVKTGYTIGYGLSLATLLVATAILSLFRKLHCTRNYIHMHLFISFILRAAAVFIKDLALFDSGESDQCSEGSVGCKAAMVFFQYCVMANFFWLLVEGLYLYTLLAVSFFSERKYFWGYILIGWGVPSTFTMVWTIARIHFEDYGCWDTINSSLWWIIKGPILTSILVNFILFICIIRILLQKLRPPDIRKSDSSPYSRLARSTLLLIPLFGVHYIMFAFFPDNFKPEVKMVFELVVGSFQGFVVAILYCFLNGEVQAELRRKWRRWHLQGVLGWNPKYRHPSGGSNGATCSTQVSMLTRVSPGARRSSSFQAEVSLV

Human PAC1 Receptor = molecular target: T5, Human PAC1 Receptor (Homo sapiens, UniProt P41586); assay: Filter binding assay, 125I-labeled PACAP-27, membranes of cells transiently transfected with human PAC1; settings: 125I-labeled PACAP-27 tracer
T5 construct: expressed in transfected cells
T5 sequence (P41586 21-468): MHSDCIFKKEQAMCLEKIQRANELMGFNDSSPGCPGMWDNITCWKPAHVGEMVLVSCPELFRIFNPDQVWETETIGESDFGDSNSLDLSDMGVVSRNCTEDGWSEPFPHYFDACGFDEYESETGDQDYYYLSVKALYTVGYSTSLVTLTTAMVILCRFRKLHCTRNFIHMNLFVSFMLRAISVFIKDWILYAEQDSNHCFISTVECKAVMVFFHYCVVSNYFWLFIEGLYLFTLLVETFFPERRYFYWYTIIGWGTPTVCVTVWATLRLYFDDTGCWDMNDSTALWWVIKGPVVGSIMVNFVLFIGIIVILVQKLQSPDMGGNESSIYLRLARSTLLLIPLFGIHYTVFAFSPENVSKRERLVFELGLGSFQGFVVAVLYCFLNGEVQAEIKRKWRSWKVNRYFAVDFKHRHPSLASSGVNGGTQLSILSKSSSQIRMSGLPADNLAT
Protocol: For this assay, the solutions and equipment include:
Presoak solution: 0.5% Polyethyleneamine in Aqua dest
Buffer for flushing filter plates: 25 mM HEPES pH 7.4
Blocking buffer: 25 mM HEPES pH 7.4; 0.2% protease free BSA
Assay buffer: 25 mM HEPES pH 7.4; 0.5% protease free BSA
Dilution and assay plate: PS-Microplate, U form
Filtration Plate Multiscreen FB Opaque Plate; […] Type B Glasfiber filter
In order to prepare the filter plates, the presoak solution is aspirated by vacuum filtration. The plates are flushed twice with 200 μL flush buffer. 200 μL blocking buffer is added to the filter plate. The filter plate is then incubated with 200 μL presoak solution for 1 hour at room temperature.
The assay plate is filled with 25 μL assay buffer, 25 μL membranes (2.5 μg) suspended in assay buffer, 25 μL agonist in assay buffer, and 25 μL tracer (about 40000 cpm) in assay buffer. The filled plate is incubated for 1 hour with shaking.
The transfer from assay plate to filter plate is conducted. The blocking buffer is aspirated by vacuum filtration and washed two times with flush buffer. 90 μL is transferred from the assay plate to the filter plate. The 90 μL transferred from assay plate is aspirated and washed three times with 200 μL flush buffer. The plastic support is removed. It is dried for 1 hour at 60° C. 30 μL Microscint is added. The count is performed.

Normal Wistar rats = assay: Intravenous glucose tolerance test (IVGTT); type: in vivo, rat; settings: for % increase AUC: Dose = 0.1 mg/kg / % increase AUC: Dose = 0.3 mg/kg: AUC insulin, 0-10 min after glucose, 24 h between glucose & compound, Wistar rats; for insulin response to the i.v. glucose challenge: FIG. 1, animals treated 24 h prior to the glucose injection, versus vehicle-treated animals
Protocol: Intravenous glucose tolerance test (IVGTT): Normal Wistar rats are fasted overnight and are anesthetized prior to the experiment. A blood sampling catheter is inserted into the rats. The agonist is given subcutaneously, normally 24 h prior to the glucose challenge. Blood samples are taken from the carotid artery. A blood sample is drawn immediately prior to the injection of glucose along with the agonist. After the initial blood sample, glucose mixed is injected intravenously (i.v.). A glucose challenge of 0.5 g/kg body weight is given, injecting a total of 1.5 mL vehicle with glucose and agonist per kg body weight. The peptide concentrations are varied to produce the desired dose in μg/kg. Blood samples are drawn at 2, 4, 6 and 10 minutes after giving glucose. The control group of animals receives the same vehicle along with glucose, but with no agonist added. In some instances, 20 and 30 minute post-glucose blood samples were drawn. Aprotinin is added to the blood sample (250-500 kIU/ml blood). The plasma is then analyzed for glucose and insulin using standard methodologies.
The assay uses a formulated and calibrated peptide stock in PBS. Normally, this stock is a prediluted 100 μM stock. However, a more concentrated stock with approximately 1 mg agonist per mL is used. The specific concentration is always known. Variability in the maximal response is mostly due to variability in the vehicle dose.

[2] = Pharmacokinetic profiles of PEGylated peptides in Fisher 344 rats; type: in vivo, rat; settings: 100 μg agonist/kg, plasma RIA, mean N = 3
In short: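 Healthy rats (n=3/group) received 100 μg agonist/kg in PBS, dose based on peptide content; route not given. Plasma sampled 3–168 h post-dose, peptide quantified by N-terminal-directed RIA, PK parameters derived by model-independent analysis.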

Row | Substance | EC50 (Human VPAC2 Receptor) [nM] | EC50 (Rat VPAC1 Receptor) [nM] | EC50 (Rat VPAC2 Receptor) [nM] | 24 h stab (%) [1] [%] | IC50 (Human VPAC1 Receptor) [nM] | IC50 (Human PAC1 Receptor) [nM] | % increase AUC: Dose = 0.1 mg/kg (Normal Wistar rats) [%] | % increase AUC: Dose = 0.3 mg/kg (Normal Wistar rats) [%] | insulin response to the i.v. glucose challenge (Normal Wistar rats) | AUC0-last [2] [ng·h/mL] | Cl/F [2] [mL/min/kg] | Cmax [2] [ng/mL] | Tmax [2] [h] | T½ [2] [h] | 72 h stab (%) [1] [%]
1 | C6-HSDAVFTEQY(OMe)TOrnLRAibQLAAbUAibOrnY(OMe)LQAibIOrnC(PEG40K)OrnGGPSSGAPPPS-NH2 (HSDAVFTEQYTXLRXQLAXXXYLQXIXCXGGPSSGAPPPS; C6 acyl, non-natural residues, PEG40K, C-terminal amide; Synthetic sequence PEGylated VPAC2 receptor agonist) [Agonist P576] | 55 | 461 | 67.4 | – | – | – | – | – | – | – | – | – | – | – | –
2 | C6-HSDAVFTEQY(OMe)TOrnLRAibQVAAAibK(CO(CH2)2SPEG40K)YLQSIOrnOrnGGPSSGAPPPS-NH2 (HSDAVFTEQYTXLRXQVAAXXYLQSIXXGGPSSGAPPPS; C6 acyl; PEG40K; non-natural residues; amide; Synthetic sequence PEGylated VPAC2 receptor peptide agonist) [Agonist P472] | 123 | – | 285 | 66 | – | – | – | – | – | – | – | – | – | – | –
3 | C6-HSDAVFTEQY(OMe)TOrnLRAibQVAAAibOrnYLQSIOrnC(PEG20K)OrnGGPSSGAPPPC(PEG20K)-NH2 (HSDAVFTEQYTXLRXQVAAXXYLQSIXCXGGPSSGAPPPC; C6 acyl, two PEG20K, C-terminal amide; Synthetic sequence PEGylated VPAC2 receptor agonist) [Agonist P505] | – | – | – | 133 | > 25000 | > 25000 | 12 | 74 | enhancement of the insulin response | 7006 | 0.217 | 160 | 12 | 22 | 161
4 | C6-HSDAVFTEQY(OMe)TOrnLRAibQLAAbuAibOrnYAibQAibIOrnOrnGGPSSGAPPPC(PEG20K)C(PEG20K)-NH2 (HSDAVFTEQYTXLRXQLAXXXYXQXIXXGGPSSGAPPPCC; C6 acyl, two PEG20K, C-terminal amide; Synthetic sequence PEGylated VPAC2 receptor agonist) [Agonist P525] | – | – | – | 298 | > 25000 | > 25000 | 72 | 208 | enhancement of the insulin response | 4740 | 0.333 | 133 | 16 | 22 | 353
